This note sets out measurements from patent US20030171295A1.

This assay deals with human melanocortin 1 receptor (hMC1-r transfected COS-7 cells) (human) (UniProt Q01726). As to the kind of experiment: Scatchard analysis on MC1-r transfected COS7 cells, culture supernatant with up to 30 nM AP-Ag.

What is called Kd is the concentration at which binding is half-saturated. A high value points to lower affinity.

As for “AP-Ag, truncated agouti protein containing the cysteine-rich domain tagged with alkaline phosphatase at its N-terminal (from UniProt Q03288) (ligand)”, the Kd lay within 20 to 30 nM.
